Assay results from paper PMC4155686, “Oleoyl Coenzyme A Regulates Interaction of Transcriptional Regulator RaaS (Rv1219c) with DNA in Mycobacteria*” (The Journal of Biological Chemistry, 2014).

T1: RaaS wild type (Mycobacterium tuberculosis, UniProt O86312 1-212)
T1 sequence: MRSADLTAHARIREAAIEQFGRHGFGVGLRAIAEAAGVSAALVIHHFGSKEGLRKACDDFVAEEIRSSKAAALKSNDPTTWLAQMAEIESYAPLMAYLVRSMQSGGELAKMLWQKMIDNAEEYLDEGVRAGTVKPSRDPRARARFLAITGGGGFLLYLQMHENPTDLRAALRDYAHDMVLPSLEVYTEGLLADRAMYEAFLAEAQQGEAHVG

B1: Pr14F/Pr14R (ATTO 647N) (dsDNA)
DNA 1: GGGATGAACGTACGTTTAATATCCTGAACATGCGTTCAG
DNA 2: GGGCTGAACGCATGTTCAGGATATTAAACGTACGTTCAT
B2: RaaS (regulator of antimicrobial-assisted survival), Rv1219c, wild type (natural protein)
chain: T1 sequence
notes: also called wild-type RaaS

What was measured:
RaaS wild type = biological target: T1, RaaS wild type; experiment: fluorescence anisotropy; 4 nM DNA; details: protein: recombinant; chain copies: 2
[1] = biological target: the molecule itself; experiment: small-angle X-ray scattering; protein alone in solution at 1 and 3 mg/ml, data extrapolated to infinite dilution; apparent molecular mass from I(0)

Binder	Kd (RaaS wild type) [nM]	stoichiometry N [1]
B1	31 ± 6	–
B2	–	2
